Experimental findings from PMC7932109 (Science (New York, N.y.), 2021) are described below.

B1: VHH V (VHH)
VHH: QVQLVETGGGLVQPGGSLRLSCAASGFTFSSYAMGWARQVPGKGLEWVSYIYSDGSTEYQDSVKGRFTISRDNAKSTVYLQMNSLKPEDTAVYYCATEGSLGGWGRDFGSWGQGTQVTVSS
notes: also called nanobody V; source: E. coli WK6, periplasmic extract, purified (Ni-NTA, desalting or gel filtration)
B2: VHH U (VHH)
VHH: QVQLVESGGGLVQPGGSLRLSCAASGFTLDYYAIGWFRQAPGKEREGVSCISSSGGSTHFADSVKGRFTISRDNAKNTVYLQMNSLIPEDTAVYYCAAQSGSYYWCGSDWHEYEYWGQGTQVTVSS
notes: also called nanobody U; source: E. coli WK6, periplasmic extract, purified (Ni-NTA, desalting or gel filtration)
B3: VHH W (VHH)
VHH: QVQLVESGGGLVQPGGSLRLSCAASGFTLDYYAIGWFRQAPGKEREGVSCISSSGDSTHYVDSVKGRFTISRDNAKNTVYLQMNSLKPEDTAVYYCAAQSGSYYWCGSDWHEYDYRGQGTQVTVSS
notes: also called nanobody W; source: E. coli WK6, periplasmic extract, purified (Ni-NTA, desalting or gel filtration)

A word on the Kd: it is the equilibrium constant for the complex coming apart.

The target of the experiment is SARS-CoV-2 spike receptor binding domain (RBD), residues 319 to 541 (SARS-CoV-2, UniProt P0DTC2, biotinylated for SPR; DyLight 488 (NHS ester) for the ACE2-RBD binding assay; no label told for ELISA and crystals). Kind of experiment: SPR. The following applies: both partners purified.
In turn, B1 had a Kd of 9 nM.

For the molecule B2, the affinity, expressed as Kd, was 21 nM.

B3 registered a Kd of 22 nM.
